Results published in doi:10.1101/2021.06.10.447992 (bioRxiv, 2021).

Target: the molecule itself
Experiment: AUC

B1: Y137C COA7 pathogenic variant, recombinant, GST-free (natural protein, human)
chain: GPLGSMAGMVDFQDEEQVKSFLENMEVECNYHCYHEKDPDGCYRLVDYLEGIRKNFDEAAKVLKFNCEENQHSDSCYKLGAYYVTGKGGLTQDLKAAARCFLMACEKPGKKSIAACHNVGLLAHDGQVNEDGQPDLGKARDCYTRACDGGYTSSCFNLSAMFLQGAPGFPKDMDLACKYSMKACDLGHIWACANASRMYKLGDGVDKDEAKAEVLKNRAQQLHKEQQKGVQPLTFG
  binding result: binds

B2: Cytochrome c oxidase assembly factor 7 (COA7), recombinant, GST-free (natural protein, human)
chain: GPLGSMAGMVDFQDEEQVKSFLENMEVECNYHCYHEKDPDGCYRLVDYLEGIRKNFDEAAKVLKFNCEENQHSDSCYKLGAYYVTGKGGLTQDLKAAARCFLMACEKPGKKSIAACHNVGLLAHDGQVNEDGQPDLGKARDYYTRACDGGYTSSCFNLSAMFLQGAPGFPKDMDLACKYSMKACDLGHIWACANASRMYKLGDGVDKDEAKAEVLKNRAQQLHKEQQKGVQPLTFG
  stoichiometry N: 2
